Results reported in patent US6506587B2, “TRF 1 binding protein, methods of use thereof” (The Rockefeller University, priority 1998, dated 2003).
“Also recorded” adds a separate entry of the source.

Columns and labels:
tankyrase = target: T1, tankyrase (Homo sapiens, UniProt O95271); assay: PARP assay with baculovirus-derived tankyrase and [32P]NAD+; type: biochemical; details: 1 mM 3AB; 4 μg tankyrase, without or with 4 μg TRF1; 1.3 μM [32P]NAD+
T1 construct: [His]6 (pFastBac HTb) (N); made in house; host or cells: SF21 insect cells (baculovirus)
T1 sequence (O95271 1-1327): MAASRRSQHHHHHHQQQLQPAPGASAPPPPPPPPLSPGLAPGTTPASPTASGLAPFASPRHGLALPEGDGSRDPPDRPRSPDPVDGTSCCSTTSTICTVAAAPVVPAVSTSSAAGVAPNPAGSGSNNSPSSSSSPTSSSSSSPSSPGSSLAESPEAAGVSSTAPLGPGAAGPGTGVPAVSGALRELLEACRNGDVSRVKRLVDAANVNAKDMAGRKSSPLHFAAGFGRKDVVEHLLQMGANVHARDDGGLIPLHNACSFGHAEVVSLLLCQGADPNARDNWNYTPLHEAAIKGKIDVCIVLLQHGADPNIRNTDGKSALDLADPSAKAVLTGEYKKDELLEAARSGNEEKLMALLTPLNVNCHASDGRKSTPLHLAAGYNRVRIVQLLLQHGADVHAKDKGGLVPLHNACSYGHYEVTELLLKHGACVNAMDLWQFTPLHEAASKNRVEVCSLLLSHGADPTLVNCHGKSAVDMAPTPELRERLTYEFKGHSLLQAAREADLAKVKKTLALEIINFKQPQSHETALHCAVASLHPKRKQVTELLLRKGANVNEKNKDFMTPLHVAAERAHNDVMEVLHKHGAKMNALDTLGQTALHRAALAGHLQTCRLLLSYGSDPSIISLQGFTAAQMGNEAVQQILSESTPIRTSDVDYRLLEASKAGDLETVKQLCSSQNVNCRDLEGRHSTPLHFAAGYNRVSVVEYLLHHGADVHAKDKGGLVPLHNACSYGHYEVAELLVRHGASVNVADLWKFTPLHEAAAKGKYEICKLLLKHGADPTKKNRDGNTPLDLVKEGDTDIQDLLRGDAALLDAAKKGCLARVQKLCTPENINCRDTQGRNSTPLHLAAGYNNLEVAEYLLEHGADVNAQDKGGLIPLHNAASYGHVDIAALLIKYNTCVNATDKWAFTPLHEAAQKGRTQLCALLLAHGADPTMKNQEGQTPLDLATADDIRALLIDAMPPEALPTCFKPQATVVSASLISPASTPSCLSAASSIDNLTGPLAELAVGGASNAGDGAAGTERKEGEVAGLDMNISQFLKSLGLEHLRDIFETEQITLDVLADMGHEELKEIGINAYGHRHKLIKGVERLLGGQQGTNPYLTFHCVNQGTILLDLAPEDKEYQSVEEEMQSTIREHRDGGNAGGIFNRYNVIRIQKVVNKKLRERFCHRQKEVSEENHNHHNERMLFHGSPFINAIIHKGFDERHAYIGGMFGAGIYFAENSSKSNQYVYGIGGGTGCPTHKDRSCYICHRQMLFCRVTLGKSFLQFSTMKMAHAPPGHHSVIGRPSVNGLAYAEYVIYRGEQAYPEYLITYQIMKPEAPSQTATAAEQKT
Experimental: Reactions containing 4 μg tankyrase (+), without (−) or with (+) 4 μg TRF 1, and 1.3 μM [^32P]NAD^+ were incubated without (−) or with (+) 1 mM 3AB and processed as in FIG. 9A.
PARP assays were performed with baculovirus-derived tankyrase essentially as described in [Simonin et al. 268:8529 (1993)] but without addition of DNA. To make baculovirus-derived protein, an N-terminally [His]6-tagged fusion protein of human tankyrase was generated in the expression vector pFastBac HTb (Gibco BRL, Grand Island) and used to generate a recombinant plasmid in DH10Bac E. coli. The recombinant DNA was used to transfect SF21 insect cells and recombinant virus was isolated and amplified. Protein was purified as described for baculovirus-derived TRF1 [Bianchi et al., EMBO J. 16:1785 (1997)]. Samples containing tankyrase (0-4 μg) and TRF1 (0-4 μg) [Bianchi et al., EMBO J. 16:1785 (1997)] were incubated for 30 minutes at 25° C. in 0.1 ml of assay buffer containing 50 mM Tris-HCl (pH 8.0), 4 mM Mg Cl2, 0.2 mM dithiothreitol (DTT), 1.3 μM [^32P]NAD+ (4 μCi) and varying concentrations of unlabeled NAD+ (0-1 mM). Reactions were stopped by the addition of 20% trichloroacetic acid (TCA). Acid-insoluble proteins were collected by centrifugation, rinsed in 5% TCA, suspended in Laemmli loading buffer, and fractionated on SDS-PAGE. Proteins were visualized by Coomassie-Blue stain and autoradiography. […]

TRF1 [1] = target: T2, TRF1 (Homo sapiens, UniProt P54274); assay: Yeast two-hybrid analysis, β-galactosidase assay; type: cell-based; details: ΔN66-LexA (deletion of the acidic domain of TRF1)
T2 construct: expressed in transfected cells; host or cells: yeast strain L40
T2 sequence (P54274 67-439): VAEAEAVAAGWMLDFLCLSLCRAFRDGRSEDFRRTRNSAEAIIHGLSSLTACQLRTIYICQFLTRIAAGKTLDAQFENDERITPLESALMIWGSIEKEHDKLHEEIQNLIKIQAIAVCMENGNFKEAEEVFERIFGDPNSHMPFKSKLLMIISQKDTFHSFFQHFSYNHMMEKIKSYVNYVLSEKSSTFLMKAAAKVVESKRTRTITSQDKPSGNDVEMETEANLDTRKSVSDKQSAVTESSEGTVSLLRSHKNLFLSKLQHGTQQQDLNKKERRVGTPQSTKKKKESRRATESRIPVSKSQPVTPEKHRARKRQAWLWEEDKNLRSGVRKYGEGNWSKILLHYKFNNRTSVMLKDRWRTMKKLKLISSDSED
Experimental: (§1) Proteins were immunoprecipitated with an unrelated rabbit serum as a control (C) (lanes 1 and 4), anti-tankyrase antibodies (tankyrase) (lanes 2 and 6) or anti-TRF1 antibody 371 (TRF1) (lanes 3 and 5). Samples were processed, suspended in Laemmli buffer and divided in half. One set was not heated (left panel) and the other was heated at 100° C. for 5 min (right panel). Proteins were fractionated on 10% SDS-PAGE, transferred to nitrocellulose and probed with anti-TRF1 antibody 371 (left panel) or anti-tankyrase antibodies (right panel). […] The values represent an average of three independent transformations. Values<0.01 are indicated by 0.
(§2) TR1L-4 and TR1L-12 were isolated from a human liver two-hybrid cDNA library (Clontech) created in pGad10. The library was screened with human full length TRF1 cDNA fused to LexA (LexA-TRF1) [Bianchi et al., EMBO J., 16:1785-1794 (1997)] in the yeast strain L40 as described [Hollenberg et al., Mol. Cell Biol., 15:3813-3822 (1995)]. Two-hybrid analysis was performed as described by Bianchi et al. [EMBO J., 16:1785-1794 (1997)]. β-galactosidase assays for the two-hybrid analysis was performed as described by Bianchi et al. [EMBO J., 16:1785-1794 (1997)].

TRF1 [2] = target: T3, TRF1 (Homo sapiens, UniProt P54274); assay: Yeast two-hybrid analysis, β-galactosidase assay; type: cell-based; details: with amino-terminal acidic domain of TRF1 (LexAd68-C); 12.0 units with GAD lacking tankyrase sequences; average of three transformations
T3 construct: expressed in transfected cells; host or cells: yeast strain L40
Experimental: as §1, §2
T3 sequence (P54274 1-67): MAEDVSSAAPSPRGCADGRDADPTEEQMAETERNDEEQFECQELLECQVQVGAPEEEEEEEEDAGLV

TRF1 [3] = assay: Gel-shift assay for TTAGGG repeat binding activity of TRF1; type: biochemical
Experimental: The Gel-shift assay for the TTAGGG repeat binding activity of TRF1 used a duplex [TTAGGG]12 DNA as a probe. Binding reactions contained the components indicated above the lanes. Tankyrase was varied from 2.5 to 200 ng per 20 μl incubation in three-fold dilution steps (triangles). TRF1 was either present at 13 ng (+) or varied from 120 to 13 ng in three-fold dilution steps (triangle). NAD^+ was at 0 (−) or 0.2 mM (+). The asterisks indicate the position of TRF1-containing complexes as determined by antibody super-shift experiments.
Gel-shift assays were performed using an end-labeled 142 bp Hindlll-Asp718 fragment from plasmid pTH12 [Z. Zhong, et al, Mol. Cell. Biol. 12:4834 (1992)] containing 12 tandem TTAGGG repeats. Baculovirus-derived TRF1 (13 to 120 ng) [Bianchi et al. EMBO J. 16:1785 (1997)] was incubated for 30 minutes at room temperature in a 20 μl reaction containing 20 mM Hepes-KOH (pH 7.9), 100 mM KCL, 0.5 mM DTT, 5% glycerol, 0.1% NP40, 100 ng sheared E. coli DNA, 100 ng β-casein, and 1 ng of labeled probe. In some cases, reactions were supplemented with NAD^+ (0.2 mM) and baculovirus-derived human tankyrase (2.5 to 200 ng). Samples were fractionated on a 0.7% agarose gel run in 0.1× TBE (8.9 mM Tris-base, 8.9 mM Boric acid, and 0.2 mM EDTA) at 130 volts for 1 hour at room temperature. Gels were dried onto Whatman DE81 paper and autoradiographed.

With `NC(=O)c1cccc(N)c1` [3AB, 3-aminobenzamide] the “Modification (ADP-ribosylation) of TRF1 and tankyrase by tankyrase” value (tankyrase) was “strongly inhibited; also recorded: inhibited”.

B1: GAD-tankyrase: 10-ANK repeat domain of TR1L-12 (ANK repeats 9-19) fused to the GAL4 activation domain (protein)
chain: FTPLHEAASKNRVEVCSLLLSHGADPTLVNCHGKSAVDMAPTPELRERLTYEFKGHSLLQAAREADLAKVKKTLALEIINFKQPQSHETALHCAVASLHPKRKQVTELLLRKGANVNEKNKDFMTPLHVAAERAHNDVMEVLHKHGAKMNALDTLGQTALHRAALAGHLQTCRLLLSYGSDPSIISLQGFTAAQMGNEAVQQILSESTPIRTSDVDYRLLEASKAGDLETVKQLCSSQNVNCRDLEGRHSTPLHFAAGYNRVSVVEYLLHHGADVHAKDKGGLVPLHNACSYGHYEVAELLVRHGASVNVADLWKFTPLHEAAAKGKYEICKLLLKHGADPTKKNRDGNTPLDLVKEGDTDI
modifications: left off: large carriers
In the case of B1, the “Interaction with TRF1 lacking the acidic domain” value (TRF1 [1]) is reported as “abolished” and the “β-galactosidase levels (lacZ reporter activation)” value (TRF1 [2]) is reported as 50.4 units.

B2: tankyrase: human TRF1-binding protein of SEQ ID NO:2 with ANK repeats, SAM motif and PARP-related domain; recombinant, baculovirus-derived (protein)
chain: MAASRRSQHHHHHHQQQLQPAPGASAPPPPPPPPLSPGLAPGTTPASPTASGLAPFASPRHGLALPEGDGSRDPPDRPRSPDPVDGTSCCSTTSTICTVAAAPVVPAVSTSSAAGVAPNPAGSGSNNSPSSSSSPTSSSSSSPSSPGSSLAESPEAAGVSSTAPLGPGAAGPGTGVPAVSGALRELLEACRNGDVSRVKRLVDAANVNAKDMAGRKSSPLHFAAGFGRKDVVEHLLQMGANVHARDDGGLIPLHNACSFGHAEVVSLLLCQGADPNARDNWNYTPLHEAAIKGKIDVCIVLLQHGADPNIRNTDGKSALDLADPSAKAVLTGEYKKDELLEAARSGNEEKLMALLTPLNVNCHASDGRKSTPLHLAAGYNRVRIVQLLLQHGADVHAKDKGGLVPLHNACSYGHYEVTELLLKHGACVNAMDLWQFTPLHEAASKNRVEVCSLLLSHGADPTLVNCHGKSAVDMAPTPELRERLTYEFKGHSLLQAAREADLAKVKKTLALEIINFKQPQSHETALHCAVASLHPKRKQVTELLLRKGANVNEKNKDFMTPLHVAAERAHNDVMEVLHKHGAKMNALDTLGQTALHRAALAGHLQTCRLLLSYGSDPSIISLQGFTAAQMGNEAVQQILSESTPIRTSDVDYRLLEASKAGDLETVKQLCSSQNVNCRDLEGRHSTPLHFAAGYNRVSVVEYLLHHGADVHAKDKGGLVPLHNACSYGHYEVAELLVRHGASVNVADLWKFTPLHEAAAKGKYEICKLLLKHGADPTKKNRDGNTPLDLVKEGDTDIQDLLKGDAALLDAAKKGCLARVQKLCTPENINCRDTQGRNSTPLHLAAGYNNLEVAEYLLEHGADVNAQDKGGLIPLHNAASYGHVDIAALLIKYNTCVNATDKWAFTPLHEAAQKGRTQLCALLLAHGADPTMKNQEGQTPLDLATADDIRALLIDAMPPEALPTCFKPQATVVSASLISPASTPSCLSAASSIDNLTGPLAELAVGGASNAGDGAAGTERKEGEVAGLDMNISQFLKSLGLEHLRDIFETEQITLDVLADMGHEELKEIGINAYGHRHKLIKGVERLLGGQQGTNPYLTFHCVNQGTILLDLAPEDKEYQSVEEEMQSTIREHRDGGNAGGIFNRYNVIRIQKVVNKKLRERFCHRQKEVSEENHNHHNERMLFHGSPFINAIIHKGFDERHAYIGGMFGAGIYFAENSSKSNQYVYGIGGGTGCPTHKDRSCYICHRQMLFCRVTLGKSFLQFSTMKMAHAPPGHHSVIGRPSVNGLAYAEYVIYRGEQAYPEYLITYQIMKPEAPSQTATAAEQKT
In the case of B2, the “TRF1 DNA binding activity on [TTAGGG]12 probe” value (from here on “TRF1 DNA binding activity”) (TRF1 [3]; NAD+ included (0.2 mM), tankyrase 2.5 to 200 ng per 20 μl, TRF1 13 ng) is reported as “drastic reduction”, the “TRF1 DNA binding activity” value (TRF1 [3]; NAD+ included (0.2 mM), tankyrase 2.5 to 200 ng per 20 μl, TRF1 13 ng, listed as Tankyrase) is reported as “inhibition” and the “TRF1 DNA binding activity” value (TRF1 [3]; absence of NAD+, effect also seen with total insect cell protein (non-specific)) is reported as “slight stimulation”.
